Assay results taken from paper PMC10794133, “Structures of the promoter-bound respiratory syncytial virus polymerase”.

Key:
[1] = target: T1, RSV L (RNA-dependent RNA polymerase);RSV P (phosphoprotein) (human respiratory syncytial virus, …, UniProt P28887;P03421 1-2165;1-241, |); experiment: cryo-EM structure; pre-initiation at position 1; Cryo-EM grid conditions not in the material; protein in 25 mM HEPES pH 7.4, 300 mM NaCl, 6 mM MgSO4, 0.5 mM TCEP (gel filtration buffer); settings: protein: recombinant;recombinant; tags: N-terminal 6xHis-TEV, TEV-treated;; copies: 1;4; single strand
[2] = target: T1, RSV L (RNA-dependent RNA …); experiment: cryo-EM structure; GTP and CpNpp supplemented (no product density); pre-initiation at position 3; Cryo-EM grid conditions not in the material; protein in 25 mM HEPES pH 7.4, 300 mM NaCl, 6 mM MgSO4, 0.5 mM TCEP (gel filtration buffer); settings: protein: recombinant;recombinant; tags: N-terminal 6xHis-TEV, TEV-treated;; copies: 1;4; single strand

T1 sequence (P28887 whole entry, chain 1 of 2): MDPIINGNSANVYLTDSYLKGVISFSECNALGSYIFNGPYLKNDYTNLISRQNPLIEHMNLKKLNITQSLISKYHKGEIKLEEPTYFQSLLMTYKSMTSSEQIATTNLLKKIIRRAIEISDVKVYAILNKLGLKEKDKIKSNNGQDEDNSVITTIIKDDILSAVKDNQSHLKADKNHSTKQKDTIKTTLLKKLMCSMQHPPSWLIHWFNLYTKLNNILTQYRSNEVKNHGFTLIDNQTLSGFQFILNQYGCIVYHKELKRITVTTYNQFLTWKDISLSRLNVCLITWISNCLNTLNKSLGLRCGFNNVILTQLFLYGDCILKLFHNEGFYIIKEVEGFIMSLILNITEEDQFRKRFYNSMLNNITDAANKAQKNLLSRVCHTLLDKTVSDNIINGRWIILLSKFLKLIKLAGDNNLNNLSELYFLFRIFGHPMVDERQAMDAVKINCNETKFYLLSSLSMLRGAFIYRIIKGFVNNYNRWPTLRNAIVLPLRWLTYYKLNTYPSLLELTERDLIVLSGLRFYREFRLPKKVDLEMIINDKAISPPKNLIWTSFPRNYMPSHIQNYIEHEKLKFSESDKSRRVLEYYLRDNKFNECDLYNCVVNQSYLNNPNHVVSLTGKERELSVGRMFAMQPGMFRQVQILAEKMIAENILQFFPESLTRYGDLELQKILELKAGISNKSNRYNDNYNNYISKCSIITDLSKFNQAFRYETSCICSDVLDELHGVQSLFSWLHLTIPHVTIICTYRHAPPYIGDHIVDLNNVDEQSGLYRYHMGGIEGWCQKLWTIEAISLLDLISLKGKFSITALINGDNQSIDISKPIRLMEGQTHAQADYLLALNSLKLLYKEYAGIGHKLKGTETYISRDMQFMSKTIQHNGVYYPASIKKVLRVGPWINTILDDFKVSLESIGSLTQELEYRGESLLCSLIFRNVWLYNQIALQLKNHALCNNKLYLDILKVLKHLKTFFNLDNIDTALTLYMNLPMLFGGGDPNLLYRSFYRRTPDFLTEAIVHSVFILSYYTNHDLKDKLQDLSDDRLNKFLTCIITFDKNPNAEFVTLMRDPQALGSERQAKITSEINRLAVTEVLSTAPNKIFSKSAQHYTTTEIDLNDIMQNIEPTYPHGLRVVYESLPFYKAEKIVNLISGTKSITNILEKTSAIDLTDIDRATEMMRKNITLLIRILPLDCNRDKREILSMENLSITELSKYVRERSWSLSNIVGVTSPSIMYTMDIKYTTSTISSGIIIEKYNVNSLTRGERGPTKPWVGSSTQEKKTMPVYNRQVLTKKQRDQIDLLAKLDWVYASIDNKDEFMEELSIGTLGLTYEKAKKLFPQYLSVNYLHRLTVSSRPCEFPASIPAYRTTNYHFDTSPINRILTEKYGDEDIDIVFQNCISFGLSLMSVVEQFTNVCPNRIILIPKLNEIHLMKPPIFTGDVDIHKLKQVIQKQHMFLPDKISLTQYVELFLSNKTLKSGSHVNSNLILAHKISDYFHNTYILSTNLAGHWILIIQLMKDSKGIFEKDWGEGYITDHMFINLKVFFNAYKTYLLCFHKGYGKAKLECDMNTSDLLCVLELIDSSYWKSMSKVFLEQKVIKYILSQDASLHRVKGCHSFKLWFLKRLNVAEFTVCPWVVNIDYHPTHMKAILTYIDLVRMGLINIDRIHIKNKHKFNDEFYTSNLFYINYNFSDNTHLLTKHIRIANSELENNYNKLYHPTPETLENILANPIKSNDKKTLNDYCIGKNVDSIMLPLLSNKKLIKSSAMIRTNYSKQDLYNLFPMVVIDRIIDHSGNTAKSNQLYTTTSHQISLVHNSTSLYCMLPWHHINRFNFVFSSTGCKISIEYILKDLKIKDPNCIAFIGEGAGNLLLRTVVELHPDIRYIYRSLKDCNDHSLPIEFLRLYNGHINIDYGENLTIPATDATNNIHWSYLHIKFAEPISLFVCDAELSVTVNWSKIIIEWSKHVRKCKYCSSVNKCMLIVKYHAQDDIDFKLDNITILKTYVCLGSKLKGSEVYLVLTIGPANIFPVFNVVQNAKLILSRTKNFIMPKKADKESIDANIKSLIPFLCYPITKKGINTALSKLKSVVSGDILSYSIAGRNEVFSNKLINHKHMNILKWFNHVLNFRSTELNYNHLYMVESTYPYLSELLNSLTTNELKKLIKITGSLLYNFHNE
T1 sequence (P03421 whole entry, chain 2 of 2): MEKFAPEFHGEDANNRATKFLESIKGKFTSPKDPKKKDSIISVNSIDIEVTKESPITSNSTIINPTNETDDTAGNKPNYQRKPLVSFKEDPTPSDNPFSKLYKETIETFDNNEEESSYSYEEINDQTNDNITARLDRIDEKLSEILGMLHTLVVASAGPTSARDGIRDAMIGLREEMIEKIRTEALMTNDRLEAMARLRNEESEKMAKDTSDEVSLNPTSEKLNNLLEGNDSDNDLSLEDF

Row | Binder | binding result [1] | binding result [2]
1 | UUUUUCUCGU (ssRNA) [TrC10 (3' trailer complementary promoter of antigenome)] | binds | –
2 | UUUUUCGCGU (ssRNA) [Le10 (3' leader promoter of genome)] | – | binds
